Tested on: SJL/elite EAE mice
Experiment: Suppression of EAE relapse, clinical scores
Type: in vivo
Conditions: BDNF 5.71 nmol/kg and/or ADTC5 10 μmol/kg i.v.
Procedure: EAE Mouse Model: EAE disease in animals (5-8-week-old SJL/elite female mice, Charles River) was stimulated by injecting 200 μg of PLP139-151 peptide in a 0.2 mL emulsion containing equal volumes of PBS and complete Freund's adjuvant (CFA) with killed mycobacterium tuberculosis strain H37RA (Difco, Detroit, Mich.; final concentration 4 mg/mL) as described in Kobayashi, N.; Kiptoo, P.; Kobayashi, H.; Ridwan, R.; Brocke, S.; Siahaan, T. J. Prophylactic and therapeutic suppression of experimental autoimmune encephalomyelitis by a novel bifunctional peptide inhibitor. Clin Immunol 2008, 129, (1), 69-79 and Kobayashi, N.; Kobayashi, H.; Gu, L.; Malefyt, T.; Siahaan, T. J. Antigen-specific suppression of experimental autoimmune encephalomyelitis by a novel bifunctional peptide inhibitor. J Pharmacol Exp Ther 2007, 322, (2), 879-86. Briefly, […] of PLP/CFA emulsion was administered to four different regions above the shoulders and the flanks on Day 0 followed by intraperitoneal injection of 200 ng of pertussis toxin (List Biological Laboratories, Campbell, Calif.) on Days 0 and 2. Clinical scores that reflect the disease progression were determined using an 11-point scale with 0.5 increments ranging from 0 to 5; 0 being no apparent disease and 5 being moribund. On Day 21, mice were randomly separated into […]: (i) BDNF (5.7 nmol/kg)+ADTC5 (10 μmol/kg; n=7), (ii) BDNF alone (5.71 nmol/kg, n=6), (iii) ADTC5 alone (10 μmol/kg; n=5), and (iv) vehicle (n=5). All mice received 8 intravenous injections every 4 days beginning on Day 21. The mice were euthanized via CO2 inhalation on Day 55. Area under the curve (AUC) calculations were used to compare clinical scores across groups; AUC calculations were performed using the trapezoid rule from Days 21 to 55.

B1: BDNF: recombinant brain-derived neurotrophic factor (13 kDa monomer), Peprotech (protein, UniProt P23560 19-247, looked up)
Neurotrophic factor BDNF …: APMKEANIRGQGGLAYPGVRTHGTLESVNGPKAGSRGLTSLADTFEHVIEELLDEDQKVRPNEENNKDADLYTSRVMLSSQVPLEPPLLFLLEEYKNYLDAANMSMRVRRHSDPARRGELSVCDSISEWVTAADKKTAVDMSGGTVTVLEKVPVSKGQLKQYFYETKCNPMGYTKEGCRGIDKRHWNSQCRTTQSYVRALTMDSKKRIGWRFIRIDTSCVCTLTIKRGR
Which results are given for B1?
locomotion / paralysis observed (8 injections): partial or full hind leg paralysis and full tail paralysis; EAE clinical body scores (8 injections every 4 days from day 21, compared with other groups/vehicle): no significant difference

Source: patent publication US20220227815A1, “COMPOSITIONS AND METHODS USEFUL IN TREATING BRAIN DISEASES” (University of Kansas, priority 2019, published 2022)
